In general, IC50 refers to the point on the concentration scale where inhibition reaches its midpoint. By EC50 is commonly meant the concentration at which the effect is half-maximal. Lower therefore signals greater potency.

Experiment [1] concerns the target T1, human RANK-L (human, UniProt O14788 140-317, limits assumed).
T1 construct: Soluble protein, used coated, biotinylated or labelled in ELISA, AlphaScreen, FMAT and Biacore; also called hRANK-L; soluble human RANK-L
T1 sequence (looked up): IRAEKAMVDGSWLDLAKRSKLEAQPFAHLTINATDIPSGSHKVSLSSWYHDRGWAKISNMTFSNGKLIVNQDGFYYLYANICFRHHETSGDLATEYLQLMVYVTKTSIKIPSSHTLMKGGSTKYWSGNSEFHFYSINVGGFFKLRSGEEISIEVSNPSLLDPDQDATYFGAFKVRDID
Description: AlphaScreen, biotin-hRANK-L / RANK-huFc beads. Background: In Alpha technology, singlet oxygen from a donor bead excites a nearby acceptor bead.

For experiment [2], the target named is T1, human RANK-L. The experiment can be described thus: FMAT, ALEXA647-hRANK-L / RANK on HEK293T cells.
Experiment [3] deals with T2, TNFα (UniProt P01375 77-233).
T2 construct: also called TNF-alpha
Description: competition ELISA on human RANK-L-coated plates, 100 pM Nanobody preincubated with the ligand. In general terms: ELISA stands for enzyme-linked immunosorbent assay.

In experiment [4] the target is T3, TRAIL (UniProt P50591 114-281, limits assumed).
T3 construct: also called tumor necrosis factor-related apoptosis inducing ligand
Described as above.

The target of experiment [5] is T4, mouse RANK-L (mouse, UniProt O35235 158-316, limits assumed).
T4 construct: also called murine RANK-L
T4 sequence (looked up): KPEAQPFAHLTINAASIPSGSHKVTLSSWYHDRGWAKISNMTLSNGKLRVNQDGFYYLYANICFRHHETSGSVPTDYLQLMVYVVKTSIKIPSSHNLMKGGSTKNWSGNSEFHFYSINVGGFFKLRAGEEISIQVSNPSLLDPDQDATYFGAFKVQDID
The experiment is described as above.

The target in experiment [6] is T1, human RANK-L. Description: cell-based or functional assay.
Experiment [7] has as its target T1, human RANK-L. Description: ELISA (ED50), biotin-hRANK-L on neutravidin. Put shortly:
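Nanobodies at 500 nM to 160 pM in 1% casein/PBS incubated 1 h at room temperature; binding detected via anti-myc then anti-mouse-HRP with TMB, OD 450 nm.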

For experiment [8], the target named is T1, human RANK-L. The experiment can be described thus: AlphaScreen, biotin-hRANK-L / RANK-huFc beads. As to the method:
To this mixture, the RANK acceptor beads and the streptavidin donor beads were added and further incubated for 1 hour at room temperature. Fluorescence was measured by reading plates on the EnVision Multilabel Plate Reader (Perkin Elmer) using an excitation wavelength of 680 nm and an emission wavelength of 520 nm.
The source holds these as a separate data set.

The target in experiment [9] is T1, human RANK-L. The experiment can be described thus: AlphaScreen, biotin-hRANK-L / RANK-huFc beads. The source holds these as a separate data set.
Experiment [10] deals with T4, mouse RANK-L. The experiment can be described thus: ELISA (ED50) on murine RANK-L, set-up as for human RANK-L. As to the method: Therefore 2 μg/ml neutravidin was coated overnight at 4° C. The plates were washed 5 times with 300 μl PBS and then blocked with […] 1% casein/PBS for 2 hours at room temperature. […] After extensive washing with PBS, varying concentrations of Nanobodies starting from 500 nM to 160 pM diluted in 1% casein/PBS were added to the wells and the plates were incubated for 1 hour at room temperature. Bound Nanobodies were detected by subsequent incubations of a primary mouse anti-myc antibody and a secondary anti mouse-HRP conjugate (DAKO, Glostrup, Denmark) and using TMB-H2O2 (Pierce, Rockford, Ill., USA) substrate cocktail. The reaction was stopped with H₂SO₄ and the OD was read at 450 nm.

T2 sequence (P01375 77-233 limits assumed): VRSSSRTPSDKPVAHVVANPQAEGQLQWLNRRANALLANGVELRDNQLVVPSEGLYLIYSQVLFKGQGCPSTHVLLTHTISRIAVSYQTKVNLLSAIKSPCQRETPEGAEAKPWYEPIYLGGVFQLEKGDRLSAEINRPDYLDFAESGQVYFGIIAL
T3 sequence (P50591 114-281 limits assumed): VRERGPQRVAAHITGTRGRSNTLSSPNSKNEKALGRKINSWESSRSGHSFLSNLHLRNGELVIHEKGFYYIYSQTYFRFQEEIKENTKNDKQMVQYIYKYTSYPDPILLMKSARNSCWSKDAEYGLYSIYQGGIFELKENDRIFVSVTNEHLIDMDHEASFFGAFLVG

B1: RANKL003p (VHH)
chain: EVQLVESGGGLVQPGGSLRLSCAASGRTFSRSAMGWFRQAPGKGREFVGFITGSGGTTYYADSVKGRFTISRDNAQNPVYLQMNSLRPEDTAVYYCAVYRRTYISSTYSESSEYDYWGQGTLVTVSSGGGGSGGGGSGGGGSGGGGSGGGGSGGGGSEVQLVESGGGLVQPGGSLRLSCAASGRTFSRSAMGWFRQAPGKGREFVGFITGSGGTTYYADSVKGRFTISRDNAQNPVYLQMNSLRPEDTAVYYCAVYRRTYISSTYSESSEYDYWGQGTLVTVSSGGGC
modifications: PEG (3-Maleimidoproprionamide, 1,3-bis(Methoxy poly (ethylene glycol) modified 2-glycerol), Average MW 40,000) coupled after DTT reduction; the entry ends in GGGC
notes: Bivalent pegylated humanized Nanobody; also called RANKL3p; RANKL18hum6-30GS-RANKL18hum6-PEG
In the case of B1, the results for the IC50 in experiment [1] and in experiment [2] were 0.025 nM and 0.038 nM, respectively. Moreover, the binding result in [3], in [4] and in [5] was “no binding (tested: 10 nM)” each time.

B2: RANKL3 (VHH, not shown: small tags and cut ends)
VHH: EVQLVESGGKLVQAGGSLRLSCAVSGRTSSIYNMAWFRQGPGKGRESVGRIYWSDDNTYYADSVKGRFTISRDNATNTVYLQMNSLKPEDTAVYYCAGKTTKWSLEYDYWGQGTQVTVSS
Consider B2, for which, in experiment [6], the “RANK-L induced NF-kappaB activation (luciferase reporter, HEK293T cells), IC50” value was 8.32 nM. Moreover, the EC50 in experiment [7] was 0.568 nM; in [10], ~0.6 nM. Also, the IC50 in experiment [8] was found to be 0.497 nM; in experiment [9] it was 0.474 nM.

For the origin of these results see patent publication US20110002929A1 (Ablynx, published 2011).
